Read-outs that look alike come from different tables or passages of the source.
B1: bacteriophage φ6 protein P1 (capsid shell), wild type (natural protein, UniProt P11126 1-769, looked up)
chain: MFNLKVKDLNGSARGLTQAFAIGELKNQLSVGALQLPLQFTRTFSASMTSELLWEVGKGNIDPVMYARLFFQYAQAGGALSVDELVNQFTEYHQSTACNPEIWRKLTAYITGSSNRAIKADAVGKVPPTAILEQLRTLAPSEHELFHHITTDFVCHVLSPLGFILPDAAYVYRVGRTATYPNFYALVDCVRASDLRRMLTALSSVDSKMLQATFKAKGALAPALISQHLANAATTAFERSRGNFDANAVVSSVLTILGRLWSPSTPKELDPSARLRNTNGIDQLRSNLALFIAYQDMVKQRGRAEVIFSDEELSSTIIPWFIEAMSEVSPFKLRPINETTSYIGQTSAIDHMGQPSHVVVYEDWQFAKEITAFTPVKLANNSNQRFLDVEPGISDRMSATLAPIGNTFAVSAFVKNRTAVYEAVSQRGTVNSNGAEMTLGFPSVVERDYALDRDPMVAIAALRTGIVDESLEARASNDLKRSMFNYYAAVMHYAVAHNPEVVVSEHQGVAAEQGSLYLVWNVRTELRIPVGYNAIEGGSIRTPEPLEAIAYNKPIQPSEVLQAKVLDLANHTTSIHIWPWHEASTEFAYEDAYSVTIRNKRYTAEVKEFELLGLGQRRERVRILKPTVAHAIIQMWYSWFVEDDRTLAAARRTSRDDAEKLAIDGRRMQNAVTLLRKIEMIGTTGIGASAVHLAQSRIVDQMAGRGLIDDSSDLHVGINRHRIRIWAGLAVLQMMGLLSRSEAEALTKVLGDSNALGMVVATTDIDPSL
B2: bacteriophage φ6 protein P1 with the E390A substitution (natural protein, UniProt P11126 1-769, looked up)
chain: MFNLKVKDLNGSARGLTQAFAIGELKNQLSVGALQLPLQFTRTFSASMTSELLWEVGKGNIDPVMYARLFFQYAQAGGALSVDELVNQFTEYHQSTACNPEIWRKLTAYITGSSNRAIKADAVGKVPPTAILEQLRTLAPSEHELFHHITTDFVCHVLSPLGFILPDAAYVYRVGRTATYPNFYALVDCVRASDLRRMLTALSSVDSKMLQATFKAKGALAPALISQHLANAATTAFERSRGNFDANAVVSSVLTILGRLWSPSTPKELDPSARLRNTNGIDQLRSNLALFIAYQDMVKQRGRAEVIFSDEELSSTIIPWFIEAMSEVSPFKLRPINETTSYIGQTSAIDHMGQPSHVVVYEDWQFAKEITAFTPVKLANNSNQRFLDVAPGISDRMSATLAPIGNTFAVSAFVKNRTAVYEAVSQRGTVNSNGAEMTLGFPSVVERDYALDRDPMVAIAALRTGIVDESLEARASNDLKRSMFNYYAAVMHYAVAHNPEVVVSEHQGVAAEQGSLYLVWNVRTELRIPVGYNAIEGGSIRTPEPLEAIAYNKPIQPSEVLQAKVLDLANHTTSIHIWPWHEASTEFAYEDAYSVTIRNKRYTAEVKEFELLGLGQRRERVRILKPTVAHAIIQMWYSWFVEDDRTLAAARRTSRDDAEKLAIDGRRMQNAVTLLRKIEMIGTTGIGASAVHLAQSRIVDQMAGRGLIDDSSDLHVGINRHRIRIWAGLAVLQMMGLLSRSEAEALTKVLGDSNALGMVVATTDIDPSL

How the values were obtained:
Test in all cases: cryo-EM structure
cryo-EM structure [1] = molecular target: the molecule itself
cryo-EM structure [2] = molecular target: the molecule itself; remark: listed apart in the source
[3] = molecular target: B2
[4] = molecular target: B1

| Binder | binding result (cryo-EM structure [1]) | binding result (cryo-EM structure [2]) | binding result [3] | binding result [4] |
| --- | --- | --- | --- | --- |
| B1 | binds |  |  |  |
| B2 |  | binds |  |  |
| bacteriophage φ6 protein P4 (packaging motor, packaging NTPase) (enzyme, UniProt P11125 1-332, looked up) MPIVVTQAHIDRVGIAADLLDASPVSLQVLGRPTAINTVVIKTYIAAVMELASKQGGSLAGVDIRPSVLLKDTAIFTKPKAKSADVESDVDVLDTGIYSVPGLARKPVTHRWPSEGIYSGVTALMGATGSGKSITLNEKLRPDVLIRWGEVAEAYDELDTAVHISTLDEMLIVCIGLGALGFNVAVDSVRPLLFRLKGAASAGGIVAVFYSLLTDISNLFTQYDCSVVMVVNPMVDAEKIEYVFGQVMASTVGAILCADGNVSRTMFRTNKGRIFNGAAPLAADTHMPSMDRPTSMKALDHTSIASVAPLERGSVDTDDRNSAPRRGANFSL | binds |  | binds | binds |
| bacteriophage φ6 protein P2 (RNA-dependent RNA polymerase) (enzyme, UniProt P11124 1-665, looked up) MPRRAPAFPLSDIKAQMLFANNIKAQQASKRSFKEGAIETYEGLLSVDPRFLSFKNELSRYLTDHFPANVDEYGRVYGNGVRTNFFGMRHMNGFPMIPATWPLASNLKKRADADLADGPVSERDNLLFRAAVRLMFSDLEPVPLKIRKGSSTCIPYFSNDMGTKIEIAERALEKAEEAGNLMLQGKFDDAYQLHQMGGAYYVVYRAQSTDAITLDPKTGKFVSKDRMVADFEYAVTGGEQGSLFAASKDASRLKEQYGIDVPDGFFCERRRTAMGGPFALNAPIMAVAQPVRNKIYSKYAYTFHHTTRLNKEEKVKEWSLCVATDVSDHDTFWPGWLRDLICDELLNMGYAPWWVKLFETSLKLPVYVGAPAPEQGHTLLGDPSNPDLEVGLSSGQGATDLMGTLLMSITYLVMQLDHTAPHLNSRIKDMPSACRFLDSYWQGHEEIRQISKSDDAILGWTKGRALVGGHRLFEMLKEGKVNPSPYMKISYEHGGAFLGDILLYDSRREPGSAIFVGNINSMLNNQFSPEYGVQSGVRDRSKRKRPFPGLAWASMKDTYGACPIYSDVLEAIERCWWNAFGESYRAYREDMLKRDTLELSRYVASMARQAGLAELTPIDLEVLADPNKLQYKWTEADVSANIHEVLMHGVSVEKTERFLRSVMPR |  |  | binds |  |
